Publication PMC5179029, “Selection and Characterization of Tau Binding ᴅ-Enantiomeric Peptides with Potential for Therapy of Alzheimer Disease” (PLoS ONE, 2016)
Square brackets hold non-standard residues; d marks the D form. Ends that are not written are not given here. * marks the point of attachment. 6FAM = O=C1OC2(c3ccc(O)cc3Oc3cc(O)ccc32)c2cc(C(=O)*)ccc21

B1: TL28 (peptide)
peptide: TTSLQMRLYYPP

Tests used:
[1] = test system: inducible N2aTau^4RDΔK280 cells; assay: Penetration of FAM-labeled peptides into cells (confocal microscopy); type: cell-based; design: key to Cell penetration: membrane, 2 hours incubation / Cell penetration: membrane, 4 days incubation / Cell penetration: cytosol, 4 days incubation / Cell penetration: cytosol, 2 hours incubation / Cell penetration: nuclei, 4 days incubation / Cell penetration: nuclei, 2 hours incubation: +: Cell compartments where fluorescence of the label was detected are summarized here
Protocol: The peptides were obtained with a 6-Carboxyfluorescein (FAM) label, linked via a C-terminal lysine, to assay their ability to enter N2a cells expressing a variant of tau protein (construct tau^4RDΔK280, derived from the 4-repeat domain) in a regulatable fashion. The cells were incubated in the presence of the peptides for two hours (short term uptake) and four days (long term uptake and stability) at concentrations of 60 μM. After incubation the cells were fixed on glass cover slips and monitored by a confocal microscope (Fluoview 1000, Olympus). The localizations of the D-peptides were detected by their FAM-label (excitation: 488 nm, emission: 520 nm). In addition, cell nuclei were stained with TOPRO3 dye (excitation: 633 nm, emission: 660–670 nm). Representative pictures were taken with magnifications of 10-times for overview and 60- and 120-times for more detailed analysis.

[2] = biological target: T1, tau monomers (tau-441, 2N4R) (Homo sapiens, UniProt P10636); assay: ELISA binding of FAM-labeled peptides to tau monomers; conditions: 20 μg/mL FAM-labeled peptide; for Binding to tau monomers (ELISA, in words): 5 μg/mL tau monomers coated, HRP anti-FITC detection; for ELISA signal, ranking among peptides: tau monomers and fibrils
T1 construct: Full lengths tau protein expression and purification; made in house
Protocol: (§1) Tau protein [tau-441 (2N4R) MW 45.9 kDa], purified as described in the main text, was used to prepare tau fibrils, the preparation of the fibrils was performed according to Barghorn et al. with slight modifications: 30 µM tau protein were incubated for 48 hours with 20 µM heparin MW ≈ 5000 (Fisher scientific, Schwerte, Germany) in phosphate-buffered saline (PBS) pH 7.4 at room temperature.
(§2) Polystyrene 96-well microtiter plates (Greiner Bio-One GmbH, Frickenhausen, Germany) were coated with 100 µL/well of tau monomers or fibrils in concentration of 5 µg/mL respectively, followed by incubation for 1 hour at room temperature. As control, PBS pH 7.4 containing 1 % BSA (IgG free) (Roth, Karlsruhe, Germany) was used instead of tau protein solution. After washing three times with PBS-T (phosphate-buffered saline (pH 7.4) with (0.1 %) Tween 20), and blocking for 1 h at room temperature with 1 % BSA (IgG free) (Roth, Karlsruhe, Germany) in PBS, the plate was washed three times with PBS-T. Then the peptides APT-Lys(FAM)-NH2, KNT-Lys(FAM)-NH2, LPS-Lys(FAM)-NH2, TD28-Lys(FAM)-NH2, TD28rev-Lys(FAM)-NH2 as well as d-TLKIVW-Lys(FAM)-NH2 (JPT Peptide Technologies, Berlin, Germany) were dissolved in PBS-T and added at 100 µL/well in concentration of 20 µg/mL, respectively, the plate was allowed to react for 1 h at room temperature in the dark. Subsequently, the plate was washed 3 times with PBS-T, horseradish peroxidase-conjugated sheep anti-FITC secondary antibodies (Bio-Rad, Muenchen, Germany) were diluted 1:5000 in PBS-T; the antibodies were incubated on the plate 1 h at room temperature. After incubation, the plate was washed 3 times with PBS-T. Subsequently, the substrate solution was prepared as follows: 10 mg of 3,3',5,5'-tetramethylbenzidine (TMB) (Roth, Karlsruhe, Germany) was dissolved in 1 ml dimethylsulfoxide (DMSO), 62 µL from TMB solution were mixed with 9 mL distilled water, 1 mL 1 M sodium acetate buffer (pH 6) and 10 µL 3 % hydrogen peroxide. 100 µL of the prepared substrate solution were transferred to the according wells. Finally, the reaction was stopped with 100 µL/well of 20 % H2SO4, and the plate was read at 450 nm (Multiskan GO, Thermo scientific, Germany).

[3] = biological target: T2, tau fibrils (tau-441, 2N4R, heparin induced) (Homo sapiens, UniProt P10636); assay: ELISA binding of FAM-labeled peptides to tau fibrils; conditions: 5 μg/mL tau fibrils coated, 20 μg/mL FAM-labeled peptide, HRP anti-FITC detection
T2 construct: Full lengths tau protein expression and purification; made in house
Protocol: as §1, §2

tau (Homo sapiens) = conditions: cited from earlier work
[4] = biological target: tau^3RD (three repeat domain construct of tau protein, K19) (human)
[5] = 60 μM FAM labeled peptide, N2aTau^4RDΔK280 cells, fixed cells, confocal microscope, FAM fluorescence
[6] = 60 μM FAM labeled peptide, N2aTau^4RDΔK280 cells, fixed cells, confocal microscope, FAM fluorescence, nuclei stained with TOPRO3

T2 sequence (P10636 1-441 isoform P10636-8): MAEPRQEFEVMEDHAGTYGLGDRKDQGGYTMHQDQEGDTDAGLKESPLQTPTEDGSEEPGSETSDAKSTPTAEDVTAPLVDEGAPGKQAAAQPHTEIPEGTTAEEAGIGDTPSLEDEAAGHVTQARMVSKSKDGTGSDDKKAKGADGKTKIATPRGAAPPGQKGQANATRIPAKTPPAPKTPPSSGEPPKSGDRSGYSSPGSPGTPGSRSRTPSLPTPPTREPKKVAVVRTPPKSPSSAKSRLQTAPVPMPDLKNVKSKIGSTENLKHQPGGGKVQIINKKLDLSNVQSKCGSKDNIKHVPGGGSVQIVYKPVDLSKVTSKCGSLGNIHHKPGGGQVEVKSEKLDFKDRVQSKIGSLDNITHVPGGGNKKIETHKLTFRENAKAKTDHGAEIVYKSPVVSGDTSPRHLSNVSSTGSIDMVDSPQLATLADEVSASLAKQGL
T1 sequence (P10636 1-441 isoform P10636-8): as above
Sequence of tau^3RD (three repeat domain construct of tau protein, K19) (human) (P10636 other isoform, or with tags, fused parts or gaps): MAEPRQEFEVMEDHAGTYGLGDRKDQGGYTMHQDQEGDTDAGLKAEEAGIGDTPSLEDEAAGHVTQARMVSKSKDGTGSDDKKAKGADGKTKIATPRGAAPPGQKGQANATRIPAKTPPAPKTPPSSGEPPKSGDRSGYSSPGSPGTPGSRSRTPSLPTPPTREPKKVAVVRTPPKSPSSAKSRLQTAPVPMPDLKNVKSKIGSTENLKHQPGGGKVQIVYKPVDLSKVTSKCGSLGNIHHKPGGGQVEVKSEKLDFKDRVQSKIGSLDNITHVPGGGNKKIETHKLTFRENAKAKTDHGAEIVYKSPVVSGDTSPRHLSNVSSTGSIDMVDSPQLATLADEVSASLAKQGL

Molecule	Cell penetration: cytosol, 4 days incubation [1, 5]	Cell penetration: membrane, 2 hours incubation [1, 5]	Cell penetration: membrane, 4 days incubation [1, 5]	Cell penetration, overall judgement (in words) ([1]; 60 μM FAM-labeled peptide, N2a cells, up to 4 days)	Binding to tau monomers (ELISA, in words) [2]	Binding to tau fibrils (ELISA, in words) [3]	Kd (tau (Homo sapiens)) [nM]	Cell penetration: cytosol, 2 hours incubation [1, 5]	ELISA signal, ranking among peptides [2]	Cell penetration: nuclei, 4 days incubation [1, 6]	Cell penetration: nuclei, 2 hours incubation [1, 6]	half maximal effect concentration, inhibition of tau^3RD (K19) fibril formation (K19 with K19), ThS fluorescence in vitro [4] [µM]
APT-Lys(FAM)-NH2: APT with 6-Carboxyfluorescein (FAM) label linked via a C-terminal lysine ([dA][dP][dT][dL][dL][dR][dL][dH][dS][dL]G[dA]K(6FAM)-NH2; N-terminus assumed; SMILES CC(C)C[C@@H](NC(=O)[C@@H](CO)NC(=O)[C@@H](Cc1c[nH]cn1)NC(=O)[C@@H](CC(C)C)NC(=O)[C@@H](CCCNC(=N)N)NC(=O)[C@@H](CC(C)C)NC(=O)[C@@H](CC(C)C)NC(=O)[C@H](NC(=O)[C@H]1CCCN1C(=O)[C@@H](C)N)[C@H](C)O)C(=O)NCC(=O)N[C@H](C)C(=O)N[C@@H](CCCCNC(=O)c1ccc2c(c1)C1(OC2=O)c2ccc(O)cc2Oc2cc(O)ccc21)C(N)=O)	+	+	+	worst cell penetration properties	binding could be demonstrated	binding could be demonstrated						
D-peptide D-TLKIVW							2000					
KNT-Lys(FAM)-NH2: KNT with 6-Carboxyfluorescein (FAM) label linked via a C-terminal lysine ([dK][dN][dT][dP][dQ][dH][dR][dK][dL][dR][dL][dS]K(6FAM)-NH2; N-terminus assumed; SMILES CC(C)C[C@@H](NC(=O)[C@@H](CCCNC(=N)N)NC(=O)[C@@H](CC(C)C)NC(=O)[C@@H](CCCCN)NC(=O)[C@@H](CCCNC(=N)N)NC(=O)[C@@H](Cc1c[nH]cn1)NC(=O)[C@@H](CCC(N)=O)NC(=O)[C@H]1CCCN1C(=O)[C@H](NC(=O)[C@@H](CC(N)=O)NC(=O)[C@H](N)CCCCN)[C@H](C)O)C(=O)N[C@H](CO)C(=O)N[C@@H](CCCCNC(=O)c1ccc2c(c1)C1(OC2=O)c2ccc(O)cc2Oc2cc(O)ccc21)C(N)=O)	+	+	+		binding could be demonstrated	binding could be demonstrated		+	highest			
TD28-Lys(FAM)-NH2: TD28 with 6-Carboxyfluorescein (FAM) label linked via a C-terminal lysine ([dT][dT][dS][dL][dQ][dM][dR][dL][dY][dY][dP][dP]K(6FAM)-NH2; N-terminus assumed; SMILES CSCC[C@@H](NC(=O)[C@@H](CCC(N)=O)NC(=O)[C@@H](CC(C)C)NC(=O)[C@@H](CO)NC(=O)[C@H](NC(=O)[C@H](N)[C@H](C)O)[C@H](C)O)C(=O)N[C@H](CCCNC(=N)N)C(=O)N[C@H](CC(C)C)C(=O)N[C@H](Cc1ccc(O)cc1)C(=O)N[C@H](Cc1ccc(O)cc1)C(=O)N1CCC[C@@H]1C(=O)N1CCC[C@@H]1C(=O)N[C@@H](CCCCNC(=O)c1ccc2c(c1)C1(OC2=O)c2ccc(O)cc2Oc2cc(O)ccc21)C(N)=O)	+	+	+		binding could be demonstrated	binding could be demonstrated		+	highest	+		
TD28rev-Lys(FAM)-NH2: TD28rev with 6-Carboxyfluorescein (FAM) label linked via a C-terminal lysine ([dP][dP][dY][dY][dL][dR][dM][dQ][dL][dS][dT][dT]K(6FAM)-NH2; N-terminus assumed; SMILES CSCC[C@@H](NC(=O)[C@@H](CCCNC(=N)N)NC(=O)[C@@H](CC(C)C)NC(=O)[C@@H](Cc1ccc(O)cc1)NC(=O)[C@@H](Cc1ccc(O)cc1)NC(=O)[C@H]1CCCN1C(=O)[C@H]1CCCN1)C(=O)N[C@H](CCC(N)=O)C(=O)N[C@H](CC(C)C)C(=O)N[C@H](CO)C(=O)N[C@@H](C(=O)N[C@@H](C(=O)N[C@@H](CCCCNC(=O)c1ccc2c(c1)C1(OC2=O)c2ccc(O)cc2Oc2cc(O)ccc21)C(N)=O)[C@H](C)O)[C@H](C)O)	+	+	+		binding could be demonstrated	binding could be demonstrated		+		+	+	
B1												> 200
